Laboratory results as given in patent publication US20220098591, “STEM-LOOP COMPOSITIONS AND METHODS FOR INHIBITING VASCULAR ENDOTHELIAL GROWTN FACTOR” (DRIVE THERAPEUTICS LLC, published 2022).

Columns and labels:
VEGF-A165 [1] = target: T1, VEGF-A165 (Homo sapiens); test: SPR; HEPES pH 7.4, 137.5 mM NaCl, 1 mM MgCl2, 1 mM CaCl2; details: tags: glycan-biotinylated for SPR/FRET/AlphaLISA; Acro BioSystems, R&D Systems; chain copies: 2 (inferred); stem-loop
T1 chain: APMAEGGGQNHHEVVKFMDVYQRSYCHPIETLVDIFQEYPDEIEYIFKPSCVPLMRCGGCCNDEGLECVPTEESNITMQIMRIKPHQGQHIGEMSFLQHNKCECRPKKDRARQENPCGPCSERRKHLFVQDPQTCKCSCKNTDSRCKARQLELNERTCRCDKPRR
Procedure: (§1) Aptamer 26 was identical in sequence to Aptamer 4.2 but contained a hexylamine linker in place of the C6 disulfide linker at the 5′ terminus. […] Briefly, in the SPR studies, 1.0-2.5 μg/mL of glycan biotinylated VEGF-A₁₆₅, VEGF-A₁₂₁, and VEGF-A₁₁₀ were diluted in HEPES running buffer (10 mM HEPES, 137.5 mM NaCl, 5.7 mM KCl, 1 mM MgCl₂, 1 mM CaCl₂, and 0.05% Tween20; pH 7.4) and immobilized to a streptavidin dextran chip (GE Healthcare Life Sciences) for 1-2 minutes. The chip was then blocked with 0.2 mg/mL biotin in running buffer, followed by 3 cycles of buffer blanks and regenerated with 50 mM NaOH to equilibrate the chip. […] After coating and blocking, samples were screened at 100 nM in duplicate injections at a flow rate of 25 μL/min, with an association time of 3 minutes 20 seconds and a dissociation time of 10 minutes. Regeneration conditions of chips were optimized based on the protein immobilized and effected with either 50 mM NaOH for 30 seconds or 2M guanidine HCl for 2×40 seconds.
(§2) Data was fit to a 1:1 kinetic binding model.

VEGF-A165 [2] = target: T1, VEGF-A165; test: direct TR-FRET, MOPS pH 7.4, 1 mM CaCl2, 1 mM MgCl2, RT; details: tags: glycan-biotinylated for SPR/FRET/AlphaLISA; Acro BioSystems, R&D Systems; chain copies: 2 (inferred); stem-loop
VEGF-A121 [3] = target: T2, VEGF-A121 (Homo sapiens, UniProt P15692 SEQ:1-121); test: competition; AlphaLISA, blocks KDR binding; details: tags: glycan-biotinylated for SPR/FRET/AlphaLISA; Acro BioSystems, Biolegend; chain copies: 2 (stated); stem-loop
Target sequence in this assay (P15692 other isoform, or with tags, fused parts or gaps): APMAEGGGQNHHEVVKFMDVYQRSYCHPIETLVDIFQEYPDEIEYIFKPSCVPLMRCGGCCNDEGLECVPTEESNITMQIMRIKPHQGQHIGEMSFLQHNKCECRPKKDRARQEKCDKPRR

VEGF-A121 [4] = target: T2, VEGF-A121; test: direct TR-FRET, RT; error not given; details: tags: glycan-biotinylated for SPR/FRET/AlphaLISA; Acro BioSystems, Biolegend; chain copies: 2 (stated); stem-loop
Procedure: Briefly, ALEXA FLUOR® 647-labeled aptamers were heated to 90° C. for 3 minutes and cooled to room temperature. Titrations of ALEXA FLUOR® 647-labeled aptamers and ALEXA FLUOR® 647-labeled anti-VEGF-A antibody were made in TR-FRET buffer (50 mM MOPS, pH 7.4, 125 mM NaCl, 5 mM KCl, 50 μM CHAPS, 0.1 mg/mL BSA, 1 mM CaCl₂, and 1 mM MgCl₂) in a polypropylene plate. 5 μL of aptamers or antibody were transferred to the black wall low volume 384 well assay plate (Greiner), followed by 5 μL glycan biotinylated VEGF-A₁₂₁ (2.5 nM final), and 5 μL Streptavidin-Eu (Perkin Elmer; 2.5 nM final). The plate was covered with a plate seal and subsequently incubated in the dark for 2 hours at room temperature. The plate was read on a Biotek CYTATION™ 5 plate reader. Samples were excited at 330 nm and fluorescent values were collected at 665 nm.
No protein background fluorescent values were averaged and subtracted from test compounds, with data normalized as a fold change to highest concentrations of aptamers and antibody. These values were fit using a four-parameter non-linear fit in GraphPad Prism Version 7.0.

VEGF-A110 = VEGF-A110 (Homo sapiens, UniProt P15692 SEQ:1-110); test: SPR; HEPES pH 7.4, 1 mM MgCl2, 1 mM CaCl2; details: tags: glycan-biotinylated; chain copies: 2 (stated); stem-loop
Procedure: as §1, §2

VEGF-A121 [5] = target: T2, VEGF-A121; test: SPR; HEPES pH 7.4, 1 mM MgCl2, 1 mM CaCl2; details: tags: glycan-biotinylated for SPR/FRET/AlphaLISA; Acro BioSystems, Biolegend; chain copies: 2 (stated); stem-loop
Procedure: as §1, §2

VEGF-A165 [6] = target: T1, VEGF-A165; test: competition; AlphaLISA, blocks KDR binding; details: tags: glycan-biotinylated for SPR/FRET/AlphaLISA; Acro BioSystems, R&D Systems; chain copies: 2 (inferred); stem-loop
Procedure: Briefly, the aptamers were heated at 90° C. for 3 minutes and allowed to cool to room temperature for a minimum of 10 minutes. Aptamers and anti-VEGF-A antibody were serial diluted in a polypropylene plate and 5 μL was transferred to a white low volume 384 well Optiplate (Perkin Elmer). A solution of VEGF-A₁₆₅ (Acro BioSystems) or VEGF-A₁₂₁ (Acro BioSystems) that was glycan biotinylated was prepared and added to the assay plate containing aptamers or anti-VEGF-A antibody to yield a final assay concentration of 2 nM. A mixture of human recombinant his-tagged KDR, (Sino Biological), AlphaLISA® nickel chelate acceptor beads (Perkin Elmer), and AlphaScreen® streptavidin donor beads (Perkin Elmer) was then prepared and 10 μL was added to the assay plate. The final concentrations of KDR and beads were 5 nM and 5 ug/mL, respectively. The assay plate was sealed and incubated in the dark for approximately 2 hours, after which it was read on a Biotek CYTATION™ 5 plate reader using the Alpha 384 well optical cube. The low signal control was determined using excess anti-VEGF-A inhibitor and the high signal control was determined by buffer only.
The mechanism of action of lead aptamers was characterized by interrogating their ability to inhibit the VEGF-A:KDR interaction with both VEGF-A₁₆₅ and VEGF-A₁₂₁.

B1: Aptamer 26 (ssRNA)
RNA: UAGGCCGCCUCCGCGCGGAGGGGUUUCAUUAUCCCGUUUGGCGGCUUU
modifications: all G 2'-F; all A,C,U 2'-OMe; 5' C6NH2; 3' idT (Tables 14-16 print it without the terminal U residues)
Work on B1 yielded a Kd (VEGF-A165 [1]) of 0.5 nM, a Kd (VEGF-A165 [2]) of 4 nM and an IC50 (VEGF-A121 [3]) of 19 nM. It also gave a Kd (VEGF-A121 [4]) of 46 nM, a Kd (VEGF-A110) of 9.9 nM and a Kd (VEGF-A121 [5]) of 4.6 nM. For the same binder, the IC50 (VEGF-A165 [6]) was 3.7 nM.
